From patent US20220089710A1, “Method of Treating Signs and Symptoms of Osteoarthritis” (Pfizer Inc., priority 2019, published 2022)

Test system: patients with osteoarthritis (OA) of the knee or hip
Assay: Example 3: treatment-emergent adverse events and deaths, Safety Population;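 also: seven SC injections given 8 weeks apart plus twice-daily oral study medication up to Week 56, Safety Population of all patients dosed at least once SC, analyzed by treatment actually received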
Procedure: Patients received a total of seven SC injections, each separated by 8 weeks and daily oral (PO) study medication BID through Week 56.
The Intent-to-Treat (ITT) Population included all patients who were randomized and received at least one dose of SC study drug. This analysis set was primary for all efficacy endpoints, which were analyzed according to randomization assignment. The Safety Population included all patients who received at least one dose of SC study treatment. This analysis set was primary for all safety endpoints, which were analyzed according to treatment received.

“tanezumab: humanized immunoglobulin G Type 2 (IgG2) monoclonal antibody directed against human nerve growth factor (NGF); SEQ ID NOs: 9 or 11 and 10” was tested. Which “Serious AE Pneumonia: n” value (2.5 mg SC, treatment period) did it give?
Its value is 1.

And the “Serious AE RPOA: %” value (2.5 mg SC, treatment period)?
The value was 0.3%.

What about the “Serious AE RPOA: n” value (2.5 mg SC, treatment period) of the same substance?
Its value is 3.

What about the “Serious AE Subchondral insufficiency fracture: %” value (2.5 mg SC, treatment period) of the same substance?
The value was 0.1%.

What about the “Serious AE Subchondral insufficiency fracture: n” value (2.5 mg SC, treatment period) of the same substance?
Its value is 1.

What about the “Serious Adverse Event (any event): % of patients” value (2.5 mg SC, treatment period) of the same substance?
The value was 5.1%.

And the “Serious Adverse Event (any event): number of patients” value (2.5 mg SC, treatment period)?
The value was 51.

And the “Severe Adverse Event: % of patients” value (2.5 mg SC, treatment period)?
Its value is 4.5%.

What about the “Severe Adverse Event: number of patients” value (2.5 mg SC, treatment period) of the same substance?
The value was 45.

And the “Upper respiratory tract infection: number of patients” value (2.5 mg SC, treatment period)?
Its value is 57.

What about the “deaths: patients” value (5 mg SC, after patient discontinuation from the study) of the same substance?
Its value is 1.

What about the “deaths: patients” value (5 mg SC, during the safety follow-up period) of the same substance?
Its value is 1.

And the “deaths: patients” value (5 mg SC, during the treatment period)?
Its value is 3.

And the “Adverse Event: % of patients” value (5 mg SC, treatment period)?
The value was 67.1%.

And the “Adverse Event: number of patients” value (5 mg SC, treatment period)?
The value was 670.

And the “Arthralgia: % of patients” value (5 mg SC, treatment period)?
The value was 16.5%.

What about the “Arthralgia: number of patients” value (5 mg SC, treatment period) of the same substance?
The value was 165.

What about the “Back pain: % of patients” value (5 mg SC, treatment period) of the same substance?
The value was 5.5%.

What about the “Back pain: number of patients” value (5 mg SC, treatment period) of the same substance?
Its value is 55.

And the “Discontinued from study (adverse event): % of patients” value (5 mg SC, treatment period)?
The value was 2.0%.

What about the “Discontinued from study (adverse event): number of patients” value (5 mg SC, treatment period) of the same substance?
The value was 20.

What about the “Discontinued study drug and continued study (adverse event): % of patients” value (5 mg SC, treatment period) of the same substance?
Its value is 8.8%.

And the “Discontinued study drug and continued study (adverse event): number of patients” value (5 mg SC, treatment period)?
Its value is 88.

And the “Fall: % of patients” value (5 mg SC, treatment period)?
The value was 5.3%.

What about the “Fall: number of patients” value (5 mg SC, treatment period) of the same substance?
The value was 53.

What about the “Headache: % of patients” value (5 mg SC, treatment period) of the same substance?
Its value is 4.5%.

What about the “Headache: number of patients” value (5 mg SC, treatment period) of the same substance?
The value was 45.

What about the “Joint swelling: % of patients” value (5 mg SC, treatment period) of the same substance?
The value was 4.8%.

What about the “Joint swelling: number of patients” value (5 mg SC, treatment period) of the same substance?
The value was 48.

And the “Musculoskeletal pain: % of patients” value (5 mg SC, treatment period)?
Its value is 4.1%.

And the “Musculoskeletal pain: number of patients” value (5 mg SC, treatment period)?
The value was 41.

What about the “Nasopharyngitis: % of patients” value (5 mg SC, treatment period) of the same substance?
The value was 6.7%.

And the “Nasopharyngitis: number of patients” value (5 mg SC, treatment period)?
The value was 67.

What about the “Osteoarthritis: % of patients” value (5 mg SC, treatment period) of the same substance?
The value was 5.4%.

And the “Osteoarthritis: number of patients” value (5 mg SC, treatment period)?
Its value is 54.

And the “Pain in extremity: % of patients” value (5 mg SC, treatment period)?
Its value is 3.7%.

What about the “Pain in extremity: number of patients” value (5 mg SC, treatment period) of the same substance?
Its value is 37.

What about the “Paraesthesia: % of patients” value (5 mg SC, treatment period) of the same substance?
Its value is 3.0%.

What about the “Paraesthesia: number of patients” value (5 mg SC, treatment period) of the same substance?
The value was 30.

What about the “Peripheral edema: % of patients” value (5 mg SC, treatment period) of the same substance?
The value was 4.3%.

And the “Peripheral edema: number of patients” value (5 mg SC, treatment period)?
Its value is 43.

And the “Rapidly progressive osteoarthritis (adverse event): % of patients” value (5 mg SC, treatment period)?
Its value is 4.1%.

What about the “Rapidly progressive osteoarthritis (adverse event): number of patients” value (5 mg SC, treatment period) of the same substance?
Its value is 41.

What about the “Serious AE Acute kidney injury: %” value (5 mg SC, treatment period) of the same substance?
Its value is 0.2%.

What about the “Serious AE Acute kidney injury: n” value (5 mg SC, treatment period) of the same substance?
Its value is 2.

What about the “Serious AE Acute myocardial infarction: %” value (5 mg SC, treatment period) of the same substance?
The value was 0.1%.

And the “Serious AE Acute myocardial infarction: n” value (5 mg SC, treatment period)?
The value was 1.

What about the “Serious AE Arthralgia: %” value (5 mg SC, treatment period) of the same substance?
The value was 0.9%.

What about the “Serious AE Arthralgia: n” value (5 mg SC, treatment period) of the same substance?
The value was 9.

And the “Serious AE Cellulitis: %” value (5 mg SC, treatment period)?
The value was 0.2%.

And the “Serious AE Cellulitis: n” value (5 mg SC, treatment period)?
Its value is 2.

And the “Serious AE Cerebrovascular accident: n” value (5 mg SC, treatment period)?
The value was 0.

And the “Serious AE Gastrointestinal hemorrhage: n” value (5 mg SC, treatment period)?
Its value is 0.

And the “Serious AE Intervetebral disc protrusion: %” value (5 mg SC, treatment period)?
The value was 0.2%.

And the “Serious AE Intervetebral disc protrusion: n” value (5 mg SC, treatment period)?
Its value is 2.

And the “Serious AE Meniscus injury: %” value (5 mg SC, treatment period)?
The value was 0.3%.

What about the “Serious AE Meniscus injury: n” value (5 mg SC, treatment period) of the same substance?
The value was 3.

And the “Serious AE Osteoarthritis: %” value (5 mg SC, treatment period)?
The value was 1.7%.

What about the “Serious AE Osteoarthritis: n” value (5 mg SC, treatment period) of the same substance?
The value was 17.

What about the “Serious AE Osteonecrosis: %” value (5 mg SC, treatment period) of the same substance?
The value was 0.2%.

And the “Serious AE Osteonecrosis: n” value (5 mg SC, treatment period)?
Its value is 2.

And the “Serious AE Pneumonia: %” value (5 mg SC, treatment period)?
The value was 0.2%.

What about the “Serious AE Pneumonia: n” value (5 mg SC, treatment period) of the same substance?
Its value is 2.

What about the “Serious AE RPOA: %” value (5 mg SC, treatment period) of the same substance?
Its value is 1.1%.

And the “Serious AE RPOA: n” value (5 mg SC, treatment period)?
Its value is 11.

What about the “Serious AE Subchondral insufficiency fracture: %” value (5 mg SC, treatment period) of the same substance?
The value was 0.4%.

What about the “Serious AE Subchondral insufficiency fracture: n” value (5 mg SC, treatment period) of the same substance?
Its value is 4.

What about the “Serious Adverse Event (any event): % of patients” value (5 mg SC, treatment period) of the same substance?
Its value is 8.0%.

What about the “Serious Adverse Event (any event): number of patients” value (5 mg SC, treatment period) of the same substance?
Its value is 80.

What about the “Severe Adverse Event: % of patients” value (5 mg SC, treatment period) of the same substance?
Its value is 6.8%.

What about the “Severe Adverse Event: number of patients” value (5 mg SC, treatment period) of the same substance?
Its value is 68.

What about the “Upper respiratory tract infection: number of patients” value (5 mg SC, treatment period) of the same substance?
The value was 45.
